According to patent publication US20150141489:

Biological target: endogenous p38α, Q16539
Sequence (Q16539 2-360): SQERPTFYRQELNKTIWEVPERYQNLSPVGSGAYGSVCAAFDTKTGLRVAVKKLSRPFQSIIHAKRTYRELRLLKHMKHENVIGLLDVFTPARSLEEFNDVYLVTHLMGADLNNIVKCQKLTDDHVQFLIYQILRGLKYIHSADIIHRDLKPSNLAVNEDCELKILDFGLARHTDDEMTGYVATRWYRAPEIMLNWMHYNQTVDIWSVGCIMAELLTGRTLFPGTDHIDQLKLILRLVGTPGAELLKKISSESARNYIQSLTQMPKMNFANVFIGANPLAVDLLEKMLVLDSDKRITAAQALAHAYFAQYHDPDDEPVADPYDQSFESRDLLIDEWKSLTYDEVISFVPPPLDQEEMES

B1: T7-tagged human Mnk2a (protein)
chain: MVQKKPAELQGFHRSFKGQNPFELAFSLDQPDHGDSDFGLQCSARPDMPASQPIDIPDAKKRGKKKKRGRATDSFSGRFEDVYQLQEDVLGEGAHARVQTCINLITSQEYAVKIIEKQPGHIRSRVFREVEMLYQCQGHRNVLELIEFFEEEDRFYLVFEKMRGGSILSHIHKRRHFNELEASVVVQDVASALDFLHNKGIAHRDLKPENILCEHPNQVSPVKICDFDLGSGIKLNGDCSPISTPELLTPCGSAEYMAPEVVEAFSEEASIYDKRCDLWSLGVILYILLSGYPPFVGRCGSDCGWDRGEACPACQNMLFESIQEGKYEFPDKDWAHISCAAKDLISKLLVRDAKQRLSAAQVLQHPWVQGCAPENTLPTPMVLQRNSCAKDLTSFAAEAIAMNRQLAQHDEDLAEEEAAGQGQPVLVRATSRCLQLSPPSQSKLAQRRQRASLSSAPVVLVGDHA
Q: B1 was tested. Which “p38-MAPK phosphorylation (Western blot)” value did it give?
A: only cells expressing Mnk2a showed increased p38-MAPK phosphorylation, indicating that p38-MAPK is activated

B2: Mnk2a-kinase dead (Mnk2aKD) (protein)
chain: MVQKKPAELQGFHRSFKGQNPFELAFSLDQPDHGDSDFGLQCSARPDMPASQPIDIPDAKKRGKKKKRGRATDSFSGRFEDVYQLQEDVLGEGAHARVQTCINLITSQEYAVAIIEKQPGHIRSRVFREVEMLYQCQGHRNVLELIEFFEEEDRFYLVFEKMRGGSILSHIHKRRHFNELEASVVVQDVASALDFLHNKGIAHRDLKPENILCEHPNQVSPVKICDFDLGSGIKLNGDCSPISTPELLTPCGSAEYMAPEVVEAFSEEASIYDKRCDLWSLGVILYILLSGYPPFVGRCGSDCGWDRGEACPACQNMLFESIQEGKYEFPDKDWAHISCAAKDLISKLLVRDAKQRLSAAQVLQHPWVQGCAPENTLPTPMVLQRNSCAKDLTSFAAEAIAMNRQLAQHDEDLAEEEAAGQGQPVLVRATSRCLQLSPPSQSKLAQRRQRASLSSAPVVLVGDHA
Q: How did the “p38 or MK2 phosphorylation (Western blot)” value turn out when B2 was run?
A: it did not cause activation of p38, as measured by p38 or MK2 phosphorylation
